From US11472877 (Alector, dated 2022)
Numbering of substitutions follows the chain as printed. One block for each binder: values may come before it.

Experiments:
human TREM2 on BWZ cells = target: T1, human TREM2 on BWZ cells (human, UniProt Q9NZC2 19-230); assay: FACS, BWZ cells
T1 construct: whole, on cells; not tied to the cell line; also called BWZ Human TREM2
T1 sequence (looked up): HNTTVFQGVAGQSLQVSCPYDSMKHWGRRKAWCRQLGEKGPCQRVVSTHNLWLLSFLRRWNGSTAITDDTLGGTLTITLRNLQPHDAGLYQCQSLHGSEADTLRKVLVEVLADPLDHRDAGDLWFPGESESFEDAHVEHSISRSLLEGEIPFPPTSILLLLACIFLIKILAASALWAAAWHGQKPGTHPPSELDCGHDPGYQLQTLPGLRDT

mouse TREM2 on BWZ cells = target: T2, mouse TREM2 on BWZ cells (mouse, UniProt Q99NH8 19-227); assay: FACS, BWZ cells
T2 construct: whole, on cells; also called BWZ Mouse TREM2
T2 sequence (looked up): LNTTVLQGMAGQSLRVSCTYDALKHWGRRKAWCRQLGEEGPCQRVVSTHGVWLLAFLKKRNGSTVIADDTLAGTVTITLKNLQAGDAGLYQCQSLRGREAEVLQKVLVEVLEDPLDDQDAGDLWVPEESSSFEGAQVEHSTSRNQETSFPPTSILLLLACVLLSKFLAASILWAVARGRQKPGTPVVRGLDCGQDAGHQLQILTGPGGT

binding result (human TREM2 on BWZ cells): no binding | binding result (mouse TREM2 on BWZ cells): no binding
B7: T1-43 (antibody, IgG1, V domains shown)
VH: QVQLVQSGAEVKKPGASVKVSCKASGYTFTSYYMHWVRQAPGQGLEWMGIINPSGGSTSYAQKFQGRVTMTRDTSTSTVYMELSSLRSEDTAVYYCAREAGNYYDIESAFDIWGQGTMVTVSS
VL: not shown
notes: huIgG1; also called TI-43; ADI-19117

binding result (mouse TREM2 on BWZ cells): no binding
B8: T1-49 (antibody, IgG1, V domains shown)
VH: QVQLVQSGAEVKKPGASVKVSCKASGYTFTSYYMHWVRQAPGQGLEWMGIINPSGGSTSYAQKFQGRVTMTRDTSTSTVYMELSSLRSEDTAVYYCAREAGSWLISTAFDIWGQGTMVTVSS
VL: not shown
notes: huIgG1; also called TI-49; ADI-19122

binding result (human TREM2 on BWZ cells): no binding | binding result (mouse TREM2 on BWZ cells): no binding
B10: T1-53 (antibody, IgG1, V domains shown)
VH: QVQLVQSGAEVKKPGASVKVSCKASGYTFTSYYIHWVRQAPGQGLEWMGIINPSGGSTSYAQKFQGRVTMTRDTSTSTVYMELSSLRSEDTAVYYCARESGYHVSTAFDIWGQGTMVTVSS
VL: not shown
notes: huIgG1; also called TI-53; ADI-19128

binding result (human TREM2 on BWZ cells): no binding | binding result (mouse TREM2 on BWZ cells): no binding
B11: T1-6 (antibody, IgG1, V domains shown)
VH: B10 VH with I34M, I50V, Y102H, H103S, V104Y, S105V, T106S, A107S, I110P, M116L
VL: not shown
notes: huIgG1; also called TI-6; ADI-19072

binding result (human TREM2 on BWZ cells): no binding | binding result (mouse TREM2 on BWZ cells): no binding
B12: T1-37 (antibody, IgG1, V domains shown)
VH: QVQLVESGGGVVQPGRSLRLSCAASGFTFSSYGMHWVRQAPGKGLEWVALIWYDGSNKYYADSVKGRFTISRDNSKNTLYLQMNSLRAEDTAVYYCAKGDYLDPLFDYWGQGTLVTVSS
VL: EIVMTQSPATLSVSPGERATLSCRASQSVSSNLAWYQQKPGQAPRLLIYGASTRATGIPARFSGSGSGTEFTLTISSLQSEDFAVYYCQQYAYWPLTFGGGTKVEIK
notes: huIgG1; also called TI-37; ADI-19111

binding result (human TREM2 on BWZ cells): no binding | binding result (mouse TREM2 on BWZ cells): no binding
B13: T1-52 (antibody, IgG1, V domains shown)
VH: QVQLVQSGAEVKKPGSSVKVSCKASGGTFSSYAISWVRQAPGQGLEWMGSIIPIFGTANYAQKFQGRVTITADESTSTAYMELSSLRSEDTAVYYCARDRGQYSSSWYGRMDVWGQGTTVTVSS
VL: DIQMTQSPSTLSASVGDRVTITCRASQSISSWLAWYQQKPGKAPKLLIYKASSLESGVPSRFSGSGSGTEFTLTISSLQPDDFATYYCQQSSADSPFTFGGGTKVEIK
notes: huIgG1; also called TI-52; ADI-19127

binding result (human TREM2 on BWZ cells): no binding | binding result (mouse TREM2 on BWZ cells): no binding
B14: T1-55 (antibody, IgG1, V domains shown)
VH: QVQLVQSGAEVKKPGASVKVSCKASGYTFTSYYMHWVRQAPGQGLEWMGVINPSGGSTSYAQKFQGRVTMTRDTSTSTVYMELSSLRSEDTAVYYCARGADYYAGFDYWGQGTLVTVSS
VL: not shown
notes: huIgG1; also called TI-55; ADI-19130

More lines, now with the values behind:

B1: T1-18 (antibody, IgG1, V domains shown)
VH: EVQLVESGGGLVQPGRSLRLSCAASGFTFDDYAMHWVRQAPGKGLEWVSGISWNSGDIGYADSVKGRFTISRDNAKNTLYLQMNSLRAEDTALYYCAKGPRMVTHLDVWGQGTMVTVSS
VL: DIQMTQSPSTLSASVGDRVTITCRASQSISSWLAWYQQKPGKAPKLLIYKASSLESGVPSRFSGSGSGTEFTLTISSLQPDDFATYYCQQDSIYPITFGGGTKVEIK
notes: huIgG1; also called TI-18; ADI-19085
binding result (human TREM2 on BWZ cells): no binding | binding result (mouse TREM2 on BWZ cells): no binding

B2: T1-56 (antibody, IgG1, V domains shown)
VH: B1 VH with D57S, T78S, M102L, V103L, T104G, H105Y, L106F, V108L, Q111R, M114L
VL: not shown
notes: huIgG1; also called TI-56; ADI-19131
binding result (human TREM2 on BWZ cells): no binding | binding result (mouse TREM2 on BWZ cells): no binding

B3: T1-51 (antibody, IgG1, V domains shown)
VH: QVQLVQSGAEVKKPGSSVKVSCKASGGTFSSYAISWVRQAPGQGLEWMGSIIPIFGTANYAQKFQGRVTITADESTSTAYMELSSLRSEDTAVYYCARSGGYSSSWYGTGYDYWGQGTLVTVSS
VL: B1 VL with D91F, S92Q, I93S, I96F
notes: huIgG1; also called TI-51; ADI-19126
binding result (human TREM2 on BWZ cells): no binding | binding result (mouse TREM2 on BWZ cells): no binding

B4: T1-35 (antibody, IgG1, V domains shown)
VH: QVQLVESGGGVVQPGRSLRLSCAASGFTFSSYGMHWVRQAPGKGLEWVAVISYDGSNKYYADSVKGRFTISRDNSKNTLYLQMNSLRAEDTAVYYCARPDYYSSRGVFDIWGQGTMVTVSS
VL: not shown
notes: huIgG1; also called TI-35; ADI-19109
binding result (human TREM2 on BWZ cells): no binding | binding result (mouse TREM2 on BWZ cells): no binding

B5: T1-36 (antibody, IgG1, V domains shown)
VH: B4 VH
VL: not shown
notes: huIgG1; also called TI-36; ADI-19110
binding result (human TREM2 on BWZ cells): no binding | binding result (mouse TREM2 on BWZ cells): no binding

B6: T1-40 (antibody, IgG1, V domains shown)
VH: EVQLVESGGGLVKPGGSLRLSCAASGFTFSSYSMNWVRQAPGKGLEWVSSISSSSSYIYYADSVKGRFTISRDNAKNSLYLQMNSLRAEDTAVYYCARTRIDDSFDIWGQGTMVTVSS
VL: not shown
notes: huIgG1; also called TI-40; ADI-19114
binding result (human TREM2 on BWZ cells): no binding | binding result (mouse TREM2 on BWZ cells): no binding

B9: T1-9 (antibody, IgG1, V domains shown)
VH: B10 VH with I34M, S100A, H103D, V104I, T106S
VL: not shown
notes: huIgG1; also called TI-9; ADI-19076
binding result (human TREM2 on BWZ cells): no binding | binding result (mouse TREM2 on BWZ cells): no binding
